Reference: the supplement of paper PMC12042874
± gives the uncertainty stated by the source.

Test: amyloid nucleation score (Sup35N fusion, yeast selection) (log enrichment); library NNK3; higher = more nucleation; inactive = no reads after selection
Outline: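 The nucleation score is the log enrichment of output over input reads, calculated with DiMSum and centred on the mode score of non-aggregating sequences. Sequences with under 100 input reads were excluded. Reads came from Illumina sequencing of plasmid inserts from psi-negative yeast expressing Sup35N fused to peptides of 20 random codons, induced 24 hours with 100 μM copper sulfate and grown 7 days at 30°C without adenine and uracil.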
With PLLMDPTFPFAIRTDMVSLR the amyloid nucleation score was “inactive”.
NLPLYPSGFFKSMIRNRVLT gave an amyloid nucleation score of 1.66 ± 0.083.
In the case of NWVAKMGFVHGSSKRYSPPK, the amyloid nucleation score is reported as 0.111 ± 0.61.
In the case of VLSEESNYAKM, the amyloid nucleation score is reported as “inactive”.
For KTFCVVDTR, the amyloid nucleation score was “inactive”.
For DYEHSGSCKIDFVTL, the amyloid nucleation score was “inactive”.
In the case of QWWSLVTCQAMMN, the amyloid nucleation score is reported as “inactive”.
With QGNSIWMYLGWVNKTML the amyloid nucleation score was “inactive”.
For VFSNSGAETVLGLSKGWSDV, the amyloid nucleation score was -0.542 ± 0.96.
With SELLPNYTKGVLTGDIYSRY the amyloid nucleation score was “inactive”.
With GYTIYGRVNPLVCPWVLVSE the amyloid nucleation score was “inactive”.
In the case of YCQIK, the amyloid nucleation score is reported as “inactive”.
In the case of SSDECV, the amyloid nucleation score is reported as “inactive”.
For CQNLATRSFKALPLRSLCTC, the amyloid nucleation score was “inactive”.
LMGGQMRDIVFHMQGF showed an amyloid nucleation score of 1.45 ± 0.1.
In the case of CCIMLTWKRCLNKRLVTTDP, the amyloid nucleation score is reported as “inactive”.
For LLQFLMFARNSMIKVVRSMV, the amyloid nucleation score was “inactive”.
Substance HCSYEFNS has an amyloid nucleation score of -0.001 ± 0.4.
In the case of VKTESEVLLSRMSTYSWENA, the amyloid nucleation score is reported as 1.23 ± 0.17.
In the case of NSSAYFFDAAGSTRLDQASY, the amyloid nucleation score is reported as “inactive”.
In the case of NHLLSSSGSNGMLKLIRFIG, the amyloid nucleation score is reported as “inactive”.
In the case of SVVIYWIWNCL, the amyloid nucleation score is reported as 3.09 ± 0.068.
For NTVEPLYCCCSNRCISVSYV, the amyloid nucleation score was “inactive”.
In the case of KLYELDAVMMAWVIMY, the amyloid nucleation score is reported as “inactive”.
For LRQVNQWVDVKASDPNGTAL, the amyloid nucleation score was “inactive”.
With DLFDSRVVSSDAVSCYYAAS the amyloid nucleation score was “inactive”.
Work on RLYILAGGDFCNSCVVAYCR yielded an amyloid nucleation score of 0.147 ± 0.36.
For ACIVARARSSVVTCF, the amyloid nucleation score was “inactive”.
With WGITA the amyloid nucleation score was “inactive”.
With SGATVLSLSMY the amyloid nucleation score was “inactive”.
In the case of GVWKLVSRARNDSINLR, the amyloid nucleation score is reported as “inactive”.
TTCILYPYLWCLMIHMSASN showed an amyloid nucleation score of 0.891 ± 0.16.
With RISRNGCGCGILYVIIRN the amyloid nucleation score was “inactive”.
Work on LTYHWNVVQLTLGNCFSGWG yielded an amyloid nucleation score of 2.55 ± 0.059.
In the case of IYKSQMLEFVEVVRSYMPVQ, the amyloid nucleation score is reported as “inactive”.
Substance LNNWSKRVFLSPVPVWHSMS has an amyloid nucleation score of -0.619 ± 1.9.
For TADDNVIRLAYFNVTTPLWF, the amyloid nucleation score was “inactive”.
In the case of VVKYSSRCSKVRICLSRWVW, the amyloid nucleation score is reported as “inactive”.
For RLFSWNIYLWLL, the amyloid nucleation score was 1.48 ± 0.081.
For FSCVGGGSSNIWREVTDTCS, the amyloid nucleation score was “inactive”.
In the case of EMTMTWCMVVRLVWVTNGIL, the amyloid nucleation score is reported as “inactive”.
With IPAELDRQNSSAVNTPYHEM the amyloid nucleation score was “inactive”.
With MDRYNEPLSNWTKSSEIR the amyloid nucleation score was “inactive”.
With VFFTHATVLSKSYFNLERLV the amyloid nucleation score was 0.426 ± 0.33.
In the case of VCFGWSNSFSAWT, the amyloid nucleation score is reported as “inactive”.
With LFCVLP the amyloid nucleation score was “inactive”.
For NSKNFIMSISRLGYLASF, the amyloid nucleation score was “inactive”.
For SYGLKISLSHTFRSGRGMCG, the amyloid nucleation score was “inactive”.
With VNLDTSSGKT the amyloid nucleation score was “inactive”.
In the case of YSGCRVLLQWVEFSCRWIWY, the amyloid nucleation score is reported as “inactive”.
In the case of DSTVTSE, the amyloid nucleation score is reported as “inactive”.
With GSMLTDIVCFKYKVWDPIIL the amyloid nucleation score was “inactive”.
Substance YYLDRVYIFSTQDL has an amyloid nucleation score of 1.67 ± 0.065.
In the case of CVDYKRMNGFKCTLDVFRAI, the amyloid nucleation score is reported as 0.184 ± 0.61.
With SVARWSENGSTKSQYSP the amyloid nucleation score was “inactive”.
With YHIRR the amyloid nucleation score was “inactive”.
In the case of IVTLNYQLMYKMPKLLWSSN, the amyloid nucleation score is reported as “inactive”.
For FNFCCLSKQGAFFMGTYCCP, the amyloid nucleation score was 0.341 ± 0.6.
Substance SGALAKDVSVGVCVRPARLY has an amyloid nucleation score of 0.653 ± 0.19.
VAALFKGKAVSCGGFSFFN gave an amyloid nucleation score of -0.076 ± 0.54.
In the case of CYGKTGSCFSVLHGWGGFVM, the amyloid nucleation score is reported as “inactive”.
With CLRVICCFWKRPGFDWYLEM the amyloid nucleation score was “inactive”.
With NGRNSRQTVIRIVSRWVVNH the amyloid nucleation score was “inactive”.
For SENGECKATVLCMLSSPVVC, the amyloid nucleation score was “inactive”.
For LREQGRNTSR, the amyloid nucleation score was “inactive”.
In the case of FSITSADGCCSHLLRMYTNG, the amyloid nucleation score is reported as “inactive”.
For LVIGVYWDRSPLVSSPFPLN, the amyloid nucleation score was “inactive”.
For GFEAPWA, the amyloid nucleation score was “inactive”.
For CSHYFNVYTLRCISSIGDS, the amyloid nucleation score was “inactive”.
Substance IGMYNEGFGMVLMTCPRLFF has an amyloid nucleation score of 2.09 ± 0.077.
In the case of DWRMLRGFYLHINCMLSFQG, the amyloid nucleation score is reported as “inactive”.
For ACSNWMRLMLVWNSTRNRVV, the amyloid nucleation score was “inactive”.
With EYQTNNDYLQLTCLKSSWSS the amyloid nucleation score was “inactive”.
For VWFNPLCYRNYGMETLVSTK, the amyloid nucleation score was “inactive”.
With KVCRAYWYYPNFTMSRT the amyloid nucleation score was “inactive”.
In the case of VEPRWNRLVGNHVCSFDGNV, the amyloid nucleation score is reported as “inactive”.
With IIFFWILS the amyloid nucleation score was 0.16 ± 0.29.
For WVCDRLGRVSLILRL, the amyloid nucleation score was 1.06 ± 0.2.
In the case of NIAIVW, the amyloid nucleation score is reported as “inactive”.
In the case of WSVVRRAELSNSVKFEDHGM, the amyloid nucleation score is reported as “inactive”.
In the case of GFIDVPG, the amyloid nucleation score is reported as “inactive”.
Substance MALLPGVAGTSYK has an amyloid nucleation score of -0.435 ± 1.3.
For SNLVGCKLIHV, the amyloid nucleation score was “inactive”.
With FFLGVSDSMKFLYLMPTEFD the amyloid nucleation score was “inactive”.
In the case of DVITIEYVCF, the amyloid nucleation score is reported as “inactive”.
With CLISLDHIFLPSWNTGICIL the amyloid nucleation score was “inactive”.
TGFSVFYSVYRRQGH showed an amyloid nucleation score of 0.912 ± 0.19.
In the case of TDVRFDRLTCCNSLIKITRW, the amyloid nucleation score is reported as 1.14 ± 0.082.
With LIHVGRFTVRTKL the amyloid nucleation score was “inactive”.
In the case of ERHDGCFQ, the amyloid nucleation score is reported as “inactive”.
With GLPFLSTMELLLLLMSKTMR the amyloid nucleation score was “inactive”.
For PFTLSSMVSVLPMGFRIGDK, the amyloid nucleation score was “inactive”.
With RHISRRRLREVGVCRLKVML the amyloid nucleation score was “inactive”.
For DLKWNVRHGCISKTARGFVT, the amyloid nucleation score was “inactive”.
With EKRYRPEKTF the amyloid nucleation score was “inactive”.
With WQLRQGDLGSHVRRFLQLYR the amyloid nucleation score was “inactive”.
In the case of SSLLVRVRIYMGMMLLTIVR, the amyloid nucleation score is reported as “inactive”.
For SSSAF, the amyloid nucleation score was “inactive”.
With QRLRHFAVYTMMYEAWASRC the amyloid nucleation score was “inactive”.
In the case of KLTPRFICVMCTCLIRL, the amyloid nucleation score is reported as “inactive”.
With TTEMWKALACPSHRTTRPCS the amyloid nucleation score was “inactive”.
With CLISQFVY the amyloid nucleation score was “inactive”.
With LSVFDMGIRKM the amyloid nucleation score was “inactive”.
For DLFISPKFVQ, the amyloid nucleation score was “inactive”.
For CDWPPAFYQC, the amyloid nucleation score was “inactive”.
For QLTNRKCR, the amyloid nucleation score was -0.8 ± 2.5.
For ILIPNNFLLMQLDWLLIEF, the amyloid nucleation score was “inactive”.
In the case of GAGRNFGTVCL, the amyloid nucleation score is reported as “inactive”.
In the case of SNRVRMSFLLADVYCNQTEV, the amyloid nucleation score is reported as -0.183 ± 0.42.
For QFITLCLSSRSEVSVPFSLW, the amyloid nucleation score was 0.997 ± 0.12.
For FVLSMECSSRSSPSHTRDCA, the amyloid nucleation score was -0.083 ± 0.33.
Work on TMYCLHLNIMSCWSNSTKKT yielded an amyloid nucleation score of 2.57 ± 0.083.
With PIRWYRRSLFLCWLTDDRLG the amyloid nucleation score was “inactive”.
With KYSYFFVRKTMLDCSFTEAW the amyloid nucleation score was 0.771 ± 0.19.
With YERLLRDKALAPIDPI the amyloid nucleation score was “inactive”.
With YLNDCDFGVVFEMESKLWTA the amyloid nucleation score was “inactive”.
In the case of LLIVFLIFRMLRLAGASI, the amyloid nucleation score is reported as “inactive”.
With TCFKM the amyloid nucleation score was “inactive”.
With CAFLFL the amyloid nucleation score was “inactive”.
In the case of ISVTNGIMMVPLNGSNLFPS, the amyloid nucleation score is reported as -0.166 ± 0.62.
For MFRTRTNNHDSVGRYLVTMN, the amyloid nucleation score was “inactive”.
Work on GLFLRMLLRADPAKSWENRI yielded an amyloid nucleation score of 0.238 ± 0.27.
With EHYVDCVGDVAVRDVLVGAS the amyloid nucleation score was “inactive”.
In the case of LDRCDHSIVCR, the amyloid nucleation score is reported as “inactive”.
In the case of PTKDVMVGSK, the amyloid nucleation score is reported as “inactive”.
In the case of VSGMNSKLFYW, the amyloid nucleation score is reported as “inactive”.
With SMADHAESLNSSGSNRQQLG the amyloid nucleation score was “inactive”.
In the case of SGSLPMRTMLFP, the amyloid nucleation score is reported as “inactive”.
With FLAIGLFSSNT the amyloid nucleation score was 1.73 ± 0.061.
In the case of GIAIDREKVVPIRGYLWSVT, the amyloid nucleation score is reported as “inactive”.
In the case of VLIDYYMMSTSN, the amyloid nucleation score is reported as “inactive”.
With YLRKVSYNMHCRNWSWGDWS the amyloid nucleation score was “inactive”.
In the case of AYETFGNCRLVASVIIDGIS, the amyloid nucleation score is reported as “inactive”.
In the case of DHNARSVCTSNHSMAKRMFG, the amyloid nucleation score is reported as “inactive”.
With YEVNGFAQNRA the amyloid nucleation score was -0.564 ± 1.
EKFTMLARSKAAICLVDKSC gave an amyloid nucleation score of -0.463 ± 0.93.
With LFSMSVSASHHWLERSFLTR the amyloid nucleation score was “inactive”.
With SSNLYMSSFWTSMMTWPTNY the amyloid nucleation score was “inactive”.
For APRLFKQIIVTQTDGSLEGE, the amyloid nucleation score was “inactive”.
In the case of TNRFSRWCIRRRMSAVRYIG, the amyloid nucleation score is reported as “inactive”.
With CFDLVCTLCFLFRLARVVEW the amyloid nucleation score was “inactive”.
In the case of YARYYGCGIWGWWFSNRSLL, the amyloid nucleation score is reported as “inactive”.
With LLVCVFFGVLKIYFIVAIRW the amyloid nucleation score was “inactive”.
For GLLSHLDHLWVCGGWGSRKR, the amyloid nucleation score was “inactive”.
In the case of KVSMPISHTQSLPVVTARCH, the amyloid nucleation score is reported as “inactive”.
With NRWEFVHLLSYWNKSCDLCC the amyloid nucleation score was “inactive”.
Substance DYFEYCRRSKRFPKKDQPVN has an amyloid nucleation score of -0.638 ± 0.84.
In the case of NIIKTLAVRSGRRFRFLVRW, the amyloid nucleation score is reported as “inactive”.
YPMRCTCMDGGNSWDLM gave an amyloid nucleation score of 0.177 ± 0.27.
In the case of ALFAGLIECQCDNILGPETG, the amyloid nucleation score is reported as “inactive”.
EFCVYMSNGGKNLRTRTWAQ showed an amyloid nucleation score of 0.54 ± 0.31.
For LVNMHLSLSYGDLSRRQFVN, the amyloid nucleation score was “inactive”.
For KWVFWSIYVPFTCKFNMVNR, the amyloid nucleation score was “inactive”.
Work on WPFMNYVNENCSWYSS yielded an amyloid nucleation score of 1.09 ± 0.14.
With MRISRAVHELWILNFVTKES the amyloid nucleation score was -0.52 ± 1.3.
In the case of RRDPDPTLIPG, the amyloid nucleation score is reported as “inactive”.
In the case of FGNGSMNRDRSSM, the amyloid nucleation score is reported as “inactive”.
With TICVYHVSFCIQHRVSRGLL the amyloid nucleation score was -0.18 ± 0.36.
With SAWQPWMKDRSS the amyloid nucleation score was “inactive”.
